Data as given in the Immune Epitope Database (IEDB).

Experiments:
Test in all cases: IEDB peptide-MHC binding, purified MHC/competitive/fluorescence; filed as Kd, often an IC50 or EC50 that approximates it; ≥ and ≤ were set here for values at or beyond the usual limits of such assays
Details in all cases: source organism: human gammaherpesvirus 4
HLA-B*83:01 = target: HLA-B*83:01
HLA-B*40:13 = target: HLA-B*40:13
HLA-B*15:42 = target: HLA-B*15:42
HLA-B*27:20 = target: HLA-B*27:20
HLA-B*45:06 = target: HLA-B*45:06

Sequence: AQRAAGPSV
- Kd (HLA-B*83:01): ≥ 5000 nM
- Kd (HLA-B*40:13): 212 nM
- Kd (HLA-B*15:42): 1190 nM
- Kd (HLA-B*27:20): 0.7 nM
- Kd (HLA-B*45:06): 9.2 nM
